Laboratory results taken from article PMC13334471 (Journal of molecular and cellular cardiology, 2026).

Columns and labels:
Test in all cases: SPR
[1] = biological target: F-actin-Tm composite thin filament (rabbit, UniProt P68135 1-377; P58772 1-284)
[2] = biological target: F-actin from rabbit back muscle (rabbit, UniProt P68135 1-377)
[3] = biological target: Rabbit cardiac α-tropomyosin (rabbit, UniProt P58772 1-284)

Binder	Maximum Signal (Δpm) [1]	koff [1] [s⁻¹]	kon [1] [M⁻¹ s⁻¹]	Maximum Signal (Δpm) [2]	koff [2] [s⁻¹]	kon [2] [M⁻¹ s⁻¹]	Maximum Signal (Δpm) [3]	koff [3] [s⁻¹]	kon [3] [M⁻¹ s⁻¹]
SKTRGKAKVTGRWK (peptide, UniProt P45379-6 275-288, looked up)	434 Δpm	0.0362	5270	397 Δpm	0.0278	4150	420 Δpm	0.0374	5910
SKTCGKAKVTGRWK (peptide, UniProt P45379-6 275-288, looked up) [Human cTnT-C14 peptide containing HCM-linked mutation R278C]	134 Δpm	0.02	3930	144 Δpm	0.0169	1450	95.4 Δpm	0.0219	2500
SKTRGNAKVTGRWK (peptide, UniProt P45379-6 275-288, looked up) [Human cTnT-C14 peptide containing HCM-linked mutation K280N]	109 Δpm	0.041	6450	112 Δpm	0.0415	3810	108 Δpm	0.0351	6600
SKTRGKAKVTGCWK (peptide, UniProt P45379-6 275-288, looked up) [Human cTnT-C14 peptide containing HCM-linked mutation R286C]	126 Δpm	0.0256	3850	112 Δpm	0.0172	1570	114 Δpm	0.0166	3110
